This note sets out measurements from patent US20130280736A1 (MOUNT SINAI HOSPITAL, published 2013).

Experiment [1] addresses T1, prolyl-4-hydroxylase 2 (PHD2) (human, UniProt Q9GZT9 2-426, limits assumed).
T1 construct: Endogenous protein in human placental tissues
The experiment in a line: preliminary experiments, method not described.

For experiment [2], the target named is HIF-1αP402R-P564R. The experiment in a line: Western blot of lysates of transfected JEG3 cells, β-actin as loading control. As to the method:
Thus, the antibodies may be useful in predicting the severity of preeclampsia. The monoclonal antibodies were affinity purified, their IgG isotype was determined and their specificity validated (see Table 2 and FIGS. 7 and 8). The antibodies were validated using the following strategy. […] Following transfection with the various HIF-1α constructs, JEG-3 choriocarcinoma and HEK293 cells were cultured with proteosomal inhibitor MG-132 to prevent HIF degradation and Western blot and immunofluorescence analyses were used to establish the specificity and utility of the various clones. Validation experiments were run in parallel using both purified and non-purified clones to rule out potential changes in antibody performance following purification. The Western blot results unequivocally indicate that clones 1H1, 6H4 and 5A5 recognize HIF-P402^OH; clone 6A9 recognizes HIF-P564^OH; clone 7D6 recognizes both HIF-P402^OH and HIF-P64^OH; and clone 7E3 is excellent to detect total HIF-1α. […] Immunofluorescence analysis was conducted in cells and tissue sections.

T1 sequence (Q9GZT9 2-426 limits assumed): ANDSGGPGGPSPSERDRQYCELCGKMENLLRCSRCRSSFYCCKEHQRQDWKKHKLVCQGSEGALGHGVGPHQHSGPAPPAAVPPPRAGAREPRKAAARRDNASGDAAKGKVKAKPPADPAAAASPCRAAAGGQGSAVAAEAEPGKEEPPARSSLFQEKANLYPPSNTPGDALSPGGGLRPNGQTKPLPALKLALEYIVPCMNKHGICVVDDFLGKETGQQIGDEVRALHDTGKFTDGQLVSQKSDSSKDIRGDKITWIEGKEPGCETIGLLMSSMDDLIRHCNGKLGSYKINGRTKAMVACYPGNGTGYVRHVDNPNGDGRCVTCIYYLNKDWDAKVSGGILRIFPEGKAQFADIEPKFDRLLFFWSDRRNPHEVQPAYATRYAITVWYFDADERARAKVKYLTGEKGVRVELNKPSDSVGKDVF
Sequence of HIF-1αP402R-P564R (chain, as listed by the source P402R P564R P402R P564R limits assumed): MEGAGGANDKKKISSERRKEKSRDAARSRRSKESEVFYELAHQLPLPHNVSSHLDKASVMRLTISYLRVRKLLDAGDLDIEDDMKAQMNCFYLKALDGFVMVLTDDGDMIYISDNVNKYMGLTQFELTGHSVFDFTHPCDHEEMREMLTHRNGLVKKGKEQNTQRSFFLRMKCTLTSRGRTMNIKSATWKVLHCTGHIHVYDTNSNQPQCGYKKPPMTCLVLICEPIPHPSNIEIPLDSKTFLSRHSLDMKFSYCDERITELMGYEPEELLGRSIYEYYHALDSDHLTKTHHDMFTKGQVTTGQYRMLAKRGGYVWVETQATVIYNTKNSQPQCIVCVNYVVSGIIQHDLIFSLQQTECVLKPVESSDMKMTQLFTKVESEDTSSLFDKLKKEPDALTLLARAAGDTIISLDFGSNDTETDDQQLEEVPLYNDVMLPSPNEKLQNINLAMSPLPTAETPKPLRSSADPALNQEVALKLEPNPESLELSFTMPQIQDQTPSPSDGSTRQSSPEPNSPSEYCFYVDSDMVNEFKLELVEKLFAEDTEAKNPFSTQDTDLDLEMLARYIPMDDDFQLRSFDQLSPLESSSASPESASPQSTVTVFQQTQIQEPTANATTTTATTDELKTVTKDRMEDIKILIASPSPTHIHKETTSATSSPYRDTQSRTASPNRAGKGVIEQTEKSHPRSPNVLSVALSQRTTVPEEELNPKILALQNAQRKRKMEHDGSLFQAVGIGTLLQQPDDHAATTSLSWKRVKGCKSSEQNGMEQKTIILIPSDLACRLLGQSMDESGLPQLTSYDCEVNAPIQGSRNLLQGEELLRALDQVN

B1: prolyl-4-hydroxylase 3 (PHD3) (enzyme, human, UniProt Q9H6Z9 1-239, looked up)
chain: MPLGHIMRLDLEKIALEYIVPCLHEVGFCYLDNFLGEVVGDCVLERVKQLHCTGALRDGQLAGPRAGVSKRHLRGDQITWIGGNEEGCEAISFLLSLIDRLVLYCGSRLGKYYVKERSKAMVACYPGNGTGYVRHVDNPNGDGRCITCIYYLNKNWDAKLHGGILRIFPEGKSFIADVEPIFDRLLFFWSDRRNPHEVQPSYATRYAMTVWYFDAEERAEAKKKFRNLTRKTESALTED
notes: Endogenous protein in human placental tissues; the method of the preliminary experiment is not described
Take B1: the binding result in experiment [1] is listed as “binds”.

B2: monoclonal antibody clone 6A9 (antibody, V domains shown)
VH: DVQLVESGGGLVQPGGSRKLSCAASGFTFSSFGMHWVRQAPEKGLEWVAFISSGSHTIFYADTVKGRFTISRDNPKNTLFLQMTSLRSEDTAMYYCTRDYNAYWGQGTLVTVSA
VL: DVLMTQTPLSLPVSLGDQASISCRSSQSIVHSNGNTYLEWYLQKPGQSPKLLIYKVSNRFSGVPDRFSGSGSGTDFTLKISRVEAEDLGVYYCFQGTHVPLTFGAGTKLEL
notes: also called anti-HIF-1αP564^OH
With B2, in experiment [2], the binding result was “no binding”.
